We go through 88 variants from IntAct's records for PubMed 29039417.

B1: Isoform 2 of Bardet-Biedl syndrome 7 protein (Homo sapiens), Q8IWZ6-2 (parent)
chain: MDLILNRMDYLQVGVTSQKTMKLIPASRHRATQKVVIGDHDGVVMCFGMKKGEAAAVFKTLPGPKIARLELGGVINTPQEKIFIAAASEIRGFTKRGKQFLSFETNLTESIKAMHISGSDLFLSASYIYNHYCDCKDQHYYLSGDKINDVICLPVERLSRITPVLACQDRVLRVLQGSDVMYAVEVPGPPTVLALHNGNGGDSGEDLLFGTSDGKLALIQITTSKPVRKWEIQNEKKRGGILCIDSFDIVGDGVKDLLVGRDDGMVEVYSFDNANEPVLRFDQMLSESVTSIQGGCVGKDSYDEIVVSTYSGWVTGLTTEPIHKESGPGEELKINQEMQNKISSLRNELEHLQYKVLQERENYQQSSQSSKAKSAVPSFGINDKFTLNKDDASYSLILEVQTAIDNVLIQSDVPIDLLDVDKNSAVVSFSSCDSESNDNFLLATYRCQADTTRLELKIRSIEGQYGTLQAYVTPRIQPKTCQVRQYHIKPLSLHQRTHFIDHDRPMNTLTLTGQFSFAEVHSWVVFCLPEVPEKPPAGECVTFYFQNTFLDTQLESTYRKGEGVFKSDNISTISILKDVLSKEATKRKINLNISYEINEVSVKHTLKLIHPKLEYQLLLAKKVQLIDALKELQIHEGNTNFLIPEYHCILEEADHLQEEYKKQPAHLERLYG
partner: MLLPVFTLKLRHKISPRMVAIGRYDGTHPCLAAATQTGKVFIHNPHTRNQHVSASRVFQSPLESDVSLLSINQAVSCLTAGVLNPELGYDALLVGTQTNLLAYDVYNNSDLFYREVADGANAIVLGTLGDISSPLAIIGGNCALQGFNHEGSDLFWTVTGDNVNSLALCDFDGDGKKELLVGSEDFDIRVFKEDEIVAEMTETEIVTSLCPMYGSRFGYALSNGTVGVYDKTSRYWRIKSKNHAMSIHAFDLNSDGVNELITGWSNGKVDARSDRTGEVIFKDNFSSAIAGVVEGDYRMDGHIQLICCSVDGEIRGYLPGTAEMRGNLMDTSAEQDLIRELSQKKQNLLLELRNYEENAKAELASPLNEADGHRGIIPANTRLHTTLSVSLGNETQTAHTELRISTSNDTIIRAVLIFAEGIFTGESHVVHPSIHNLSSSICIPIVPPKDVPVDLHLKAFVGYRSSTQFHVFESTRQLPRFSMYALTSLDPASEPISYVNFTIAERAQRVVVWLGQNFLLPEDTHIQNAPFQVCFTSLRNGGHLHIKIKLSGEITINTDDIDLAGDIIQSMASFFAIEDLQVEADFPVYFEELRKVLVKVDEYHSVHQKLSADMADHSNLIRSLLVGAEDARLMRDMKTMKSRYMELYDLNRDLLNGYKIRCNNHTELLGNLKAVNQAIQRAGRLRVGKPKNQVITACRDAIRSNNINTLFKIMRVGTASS

The variants in this experiment derive from B1. As to conditions: with bbs2_human BBS2, Q9BXC9.
With M506E, the “effect of a mutation on the interaction” value is recorded as “with no effect”.

Turning to M506K, the “effect of a mutation on the interaction” value is “with no effect”.

As to V525K, the “effect of a mutation on the interaction” value is “with no effect”.

Consider V525E, for which the “effect of a mutation on the interaction” value is reported as “with no effect”.

Regarding V525A, the “effect of a mutation on the interaction” value was “with no effect”.

As to L511E, the “effect of a mutation on the interaction” value was “with no effect”.

For L511A, the “effect of a mutation on the interaction” value is “with no effect”.

Consider L511K, for which the “effect of a mutation on the interaction” value was “with no effect”.

Regarding L511P, the “effect of a mutation on the interaction” value is “disrupting interaction strength”.

As to A518K, the “effect of a mutation on the interaction” value was “with no effect”.

With A518E, the “effect of a mutation on the interaction” value is recorded as “with no effect”.

For N507K, the “effect of a mutation on the interaction” value was “with no effect”.

As for N507A, the “effect of a mutation on the interaction” value is “with no effect”.

Take N507E: the “effect of a mutation on the interaction” value is listed as “with no effect”.

Consider Q514K, for which the “effect of a mutation on the interaction” value is reported as “with no effect”.

Regarding Q514E, the “effect of a mutation on the interaction” value is recorded as “with no effect”.

Consider Q514A, for which the “effect of a mutation on the interaction” value was “with no effect”.

V524A: the “effect of a mutation on the interaction” value is “with no effect”.

For the variant V524K, the “effect of a mutation on the interaction” value is on record as “with no effect”.

Regarding V524E, the “effect of a mutation on the interaction” value is “with no effect”.

For T512K, the “effect of a mutation on the interaction” value is “with no effect”.

As to T512A, the “effect of a mutation on the interaction” value is “with no effect”.

Regarding T512E, the “effect of a mutation on the interaction” value is “with no effect”.

For the variant L528E, the “effect of a mutation on the interaction” value is listed as “with no effect”.

Take L528A: the “effect of a mutation on the interaction” value is “with no effect”.

L528K: the “effect of a mutation on the interaction” value is on record as “with no effect”.

On to S516E, for which the “effect of a mutation on the interaction” value is “with no effect”.

As to S516K, the “effect of a mutation on the interaction” value is given as “with no effect”.

For the variant S516A, the “effect of a mutation on the interaction” value is “with no effect”.

For V520K, the “effect of a mutation on the interaction” value is on record as “with no effect”.

With V520A, the “effect of a mutation on the interaction” value was “with no effect”.

For V520E, the “effect of a mutation on the interaction” value is “with no effect”.

For E519A, the “effect of a mutation on the interaction” value is given as “with no effect”.

Take E519K: the “effect of a mutation on the interaction” value is listed as “with no effect”.

On to F515E, for which the “effect of a mutation on the interaction” value is reported as “with no effect”.

For the variant F515A, the “effect of a mutation on the interaction” value is “with no effect”.

On to F515K, for which the “effect of a mutation on the interaction” value was “disrupting interaction strength”.

In the case of G513A, the “effect of a mutation on the interaction” value is given as “with no effect”.

For G513D, the “effect of a mutation on the interaction” value is listed as “disrupting interaction strength”.

In the case of G513K, the “effect of a mutation on the interaction” value is “with no effect”.

Turning to G513E, the “effect of a mutation on the interaction” value is reported as “with no effect”.

Regarding G513S, the “effect of a mutation on the interaction” value is “disrupting interaction strength”.

In the case of G513H, the “effect of a mutation on the interaction” value is on record as “disrupting interaction strength”.

Take G513Y: the “effect of a mutation on the interaction” value was “disrupting interaction strength”.

With L509K, the “effect of a mutation on the interaction” value was “with no effect”.

Take L509P: the “effect of a mutation on the interaction” value is recorded as “disrupting interaction strength”.

In the case of L509A, the “effect of a mutation on the interaction” value was “with no effect”.

With L509E, the “effect of a mutation on the interaction” value was “with no effect”.

As for E530K, the “effect of a mutation on the interaction” value is recorded as “with no effect”.

Turning to E530A, the “effect of a mutation on the interaction” value is listed as “with no effect”.

S522E: the “effect of a mutation on the interaction” value is “disrupting interaction strength”.

As to S522A, the “effect of a mutation on the interaction” value is recorded as “with no effect”.

Consider S522K, for which the “effect of a mutation on the interaction” value was “with no effect”.

Consider K534A, for which the “effect of a mutation on the interaction” value is listed as “with no effect”.

As for P529K, the “effect of a mutation on the interaction” value is on record as “with no effect”.

For P529E, the “effect of a mutation on the interaction” value is listed as “with no effect”.

Take P529S: the “effect of a mutation on the interaction” value is on record as “disrupting interaction strength”.

On to P529A, for which the “effect of a mutation on the interaction” value is listed as “with no effect”.

With P529C, the “effect of a mutation on the interaction” value is “disrupting interaction strength”.

For W523A, the “effect of a mutation on the interaction” value is listed as “disrupting interaction strength”.

In the case of W523K, the “effect of a mutation on the interaction” value is “with no effect”.

As to W523E, the “effect of a mutation on the interaction” value is on record as “with no effect”.

In the case of T508K, the “effect of a mutation on the interaction” value is given as “with no effect”.

Turning to T508A, the “effect of a mutation on the interaction” value is given as “with no effect”.

For T508E, the “effect of a mutation on the interaction” value is reported as “with no effect”.

In the case of H521E, the “effect of a mutation on the interaction” value is “with no effect”.

On to H521A, for which the “effect of a mutation on the interaction” value is on record as “with no effect”.

On to H521K, for which the “effect of a mutation on the interaction” value is recorded as “with no effect”.

In the case of P532K, the “effect of a mutation on the interaction” value is given as “with no effect”.

Consider P532E, for which the “effect of a mutation on the interaction” value was “with no effect”.

Take P532A: the “effect of a mutation on the interaction” value is reported as “with no effect”.

Consider F526A, for which the “effect of a mutation on the interaction” value is reported as “with no effect”.

As for F526E, the “effect of a mutation on the interaction” value is on record as “with no effect”.

Turning to F526K, the “effect of a mutation on the interaction” value is “with no effect”.

As for T510E, the “effect of a mutation on the interaction” value is “with no effect”.

On to T510A, for which the “effect of a mutation on the interaction” value was “with no effect”.

For the variant T510K, the “effect of a mutation on the interaction” value is given as “with no effect”.

For C527K, the “effect of a mutation on the interaction” value is given as “with no effect”.

C527E: the “effect of a mutation on the interaction” value is “with no effect”.

As to C527A, the “effect of a mutation on the interaction” value is “with no effect”.

Consider V531K, for which the “effect of a mutation on the interaction” value is on record as “with no effect”.

For V531A, the “effect of a mutation on the interaction” value is recorded as “with no effect”.

Turning to V531E, the “effect of a mutation on the interaction” value is given as “with no effect”.

Regarding E533A, the “effect of a mutation on the interaction” value is on record as “with no effect”.

For the variant E533K, the “effect of a mutation on the interaction” value is recorded as “with no effect”.

Regarding F517E, the “effect of a mutation on the interaction” value was “with no effect”.

Take F517K: the “effect of a mutation on the interaction” value is “with no effect”.

As for F517A, the “effect of a mutation on the interaction” value is “with no effect”.
